Measurements: PMC7618375, “Structure and Methyl-lysine Binding Selectivity of the HUSH Complex Subunit MPP8” (Journal of molecular biology, 2024)
No end group written: not given here. Me2 = dimethyl on the lysine side-chain amine

Assays:
[1] = molecular target: T1, MPP8 chromodomain (CD, residues 55-116) (human, UniProt Q99549 55-116); assay: ITC; 750 uM peptide in the syringe titrated into 50 uM MPP8 CD in the cell; 50 mM HEPES pH 7.4, 0.1 M NaCl, 0.5 mM TCEP, 25 °C; single-site model; details: both partners purified
T1 construct: MPP8 (M-phase phosphoprotein 8), human, chromodomain, residues 55-116, UniProt Q99549; Cloned in pET15b with a TEV site (ENLYFQG) in place of the thrombin site; also called MPP8 CD; M-phase phosphoprotein 8 chromodomain; source: E. coli BL21 (DE3), purified (Ni-NTA, Mono Q, Superdex 75 SEC)
T1 sequence (looked up): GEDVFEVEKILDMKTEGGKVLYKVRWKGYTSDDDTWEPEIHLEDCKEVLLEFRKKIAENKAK

[2] = molecular target: the molecule itself; assay: crystal structure; MPP8 CTD, X-ray, 3.04 Å, eight chains in the asymmetric unit; crystals at 18 °C, PEG 4000/1,2,6-hexanetriol, pH 8.5

B1: Histone H3 peptide dimethylated at lysine 9 (peptide)
chain: TKQTARK(Me2)STGGK
For B1, the Kd [1] was 1.7 µM.

B2: MPP8 C-terminal domain (CTD, residues 547-860) (domain or fragment, human, UniProt Q99549 547-860, looked up)
chain: DFQKHLDGKDENFAATDAIPSNVLRDAVKNGDYITVKVALNSNEEYNLDQEDSSGMTLVMLAAAGGQDDLLRLLITKGAKVNGRQKNGTTALIHAAEKNFLTTVAILLEAGAFVNVQQSNGETALMKACKRGNSDIVRLVIECGADCNILSKHQNSALHFAKQSNNVLVYDLLKNHLETLSRVAEETIKDYFEARLALLEPVFPIACHRLCEGPDFSTDFNYKPPQNIPEGSGILLFIFHANFLGKEVIARLCGPCSVQAVVLNDKFQLPVFLDSHFVYSFSPVAGPNKLFIRLTEAPSAKVKLLIGAYRVQLQ
notes: MPP8 (M-phase phosphoprotein 8), human, C-terminal domain (ankyrin repeats and PINIT-like domain), residues 547-860, UniProt Q99549; residues 547-562 disordered in the crystal, model spans 563-860; also called MPP8 CTD; source: E. coli BL21 (DE3), purified (Ni-NTA, thrombin cleavage, Resource Q, Superdex 200 SEC); not shown: His6, N-terminal, cleaved
For B2, the “stoichiometry N” value [2] was 2.
